To fix the notation:
B1: Activity-dependent neuroprotector homeobox protein, residues 770 to 810; numbered along this chain, Q9H2P0 (parent)
chain: FLTKYFNKQPYPTRREIEKLAASLWLWKSDIASHFSNKRKK

± gives the uncertainty stated by the source.

Variants of B1 are the subject of the series. Description: abundance fitness (aPCA) (normalised: wild type 0, dead -1); higher = more abundant; growth selection in yeast, the domain comes from the species named. The following applies: Homo sapiens.
With FLTKYFNKQPYPTRREIEKLAASLWLWKSDIASHFSNKREK [K40E], the abundance fitness was -0.278 ± 0.14. On to FLTKYFNKQPYPTRREIEKLAASLWLWKSDIASHFSNKRIK [K40I], for which the abundance fitness was -0.27 ± 0.13. FLTKYFNKQPYPTRREIEKLAASLWLWKSDIASHFSNKRDK [K40D]: the abundance fitness was -0.253 ± 0.089. As for FLTKYFNKQPYPTRREIEKLAASLWLWKSDIASHFSNKRWK [K40W], the abundance fitness is -0.137 ± 0.078. For the variant FLTKYFNKQPYPTRREIEKLAASLWLWKSDIASHFSNKRGK [K40G], the abundance fitness is -0.06 ± 0.058. With FLTKYFNKQPYPTRREIEKLAASLWLWKSDIASHFSNKRVK [K40V] the figure was -0.461 ± 0.14. As for FLTKYFNKQPYPTRREIEKLAASLWLWKSDIASHFSGKRKK [N37G], the abundance fitness came out at 0.022 ± 0.05. Consider FLTKYFNKQPYPTRREIEKLAASLWLWKSDIASHFSEKRKK [N37E], for which the abundance fitness is -0.142 ± 0.19. For the variant FLTKYFNKQPYPTRREIEKLAASLWLWKSDIASHDSNKRKK [F35D], the abundance fitness was -0.157 ± 0.072.

FLTKYFNKQPYPTRREIEKLAASLWLWKSDIASHSSNKRKK [F35S]: the abundance fitness is -0.156 ± 0.049.

Consider FLTKYFNKQPYPTRREIEKLAASLWLWKSDIASHESNKRKK [F35E], for which the abundance fitness is -0.068 ± 0.066.

For the variant FLTKYCNKQPYPTRREIEKLAASLWLWKSDIASHFSNKRKK [F6C], the abundance fitness was -0.223 ± 0.054. As for FLTKYKNKQPYPTRREIEKLAASLWLWKSDIASHFSNKRKK [F6K], the abundance fitness is -0.098 ± 0.09.

FLTKYFNKQPYPTRREIEKLAASLWLWKEDIASHFSNKRKK [S29E]: the abundance fitness was -0.294 ± 0.12. With FLTKYFNKQPYPTRREIEKLAASLWLWKLDIASHFSNKRKK [S29L] the figure was -0.145 ± 0.058; with FLTKYFNKQPYPTRREIEKLAASLWLWKSDIASHFSNPRKK [K38P], -0.206 ± 0.052; with FLTKYFNKQPYPTRREIEKLAASLWLWKSDIASHFSNRRKK [K38R], -0.115 ± 0.053. With FLTKYFNKQPYPTRREIEKLAASLWLWKSDIASHFSNTRKK [K38T], the abundance fitness was -0.229 ± 0.056. As for FLTKYFNKQPYPTRREIEKLAASLWLWKSDIASHFSNQRKK [K38Q], the abundance fitness is -0.216 ± 0.11.

Regarding FLTKYFNKQPYPTRREIEKLAASLWLWKSDIASHFSNCRKK [K38C], the abundance fitness is -0.193 ± 0.1.

For FLTKYFNKQPYPTRREIVKLAASLWLWKSDIASHFSNKRKK [E18V], the abundance fitness was -0.509 ± 0.063. With FLTKYFNKQPYPTRREINKLAASLWLWKSDIASHFSNKRKK [E18N] the figure was -0.213 ± 0.083; with FLTKYFNKQPYPTRREIAKLAASLWLWKSDIASHFSNKRKK [E18A], -0.025 ± 0.047; with FLTKYFNKQPYPTRREIMKLAASLWLWKSDIASHFSNKRKK [E18M], 0.075 ± 0.41.

For FLTKYFNKQPYPTRREIEKLAASPWLWKSDIASHFSNKRKK [L24P], the abundance fitness is -0.289 ± 0.068. On to FLTKYFNKQPYPTRREIEKLAASIWLWKSDIASHFSNKRKK [L24I], for which the abundance fitness amounted to 0.051 ± 0.099. As for FLTKYFNKDPYPTRREIEKLAASLWLWKSDIASHFSNKRKK [Q9D], the abundance fitness was -0.169 ± 0.12. With FATKYFNKQPYPTRREIEKLAASLWLWKSDIASHFSNKRKK [L2A] the figure was -0.753 ± 0.076; with FKTKYFNKQPYPTRREIEKLAASLWLWKSDIASHFSNKRKK [L2K], -0.622 ± 0.3. Consider FWTKYFNKQPYPTRREIEKLAASLWLWKSDIASHFSNKRKK [L2W], for which the abundance fitness stood at 0.044 ± 0.048.

On to FQTKYFNKQPYPTRREIEKLAASLWLWKSDIASHFSNKRKK [L2Q], for which the abundance fitness is -0.595 ± 0.11. On to FHTKYFNKQPYPTRREIEKLAASLWLWKSDIASHFSNKRKK [L2H], for which the abundance fitness is -0.738 ± 0.17. For FLTKYFNKQPYPTRREIEKLAAYLWLWKSDIASHFSNKRKK [S23Y], the abundance fitness was -0.364 ± 0.2. Turning to FLTKYFNKQPYPTRREIEKLAADLWLWKSDIASHFSNKRKK [S23D], the abundance fitness was -0.002 ± 0.12. Turning to FLTKYFNKQPYPTRREIEKLAAMLWLWKSDIASHFSNKRKK [S23M], the abundance fitness is -0.36 ± 0.23. Take FLTKYFNKQPYPTRREIEKLAATLWLWKSDIASHFSNKRKK [S23T]: the abundance fitness was -0.075 ± 0.086. As for FLTKYFNKQPYPTRREIEKLAARLWLWKSDIASHFSNKRKK [S23R], the abundance fitness was found to be 0.276 ± 0.061. Regarding FLTKYFNKQPYPTRREIEKLAALLWLWKSDIASHFSNKRKK [S23L], the abundance fitness is -0.211 ± 0.081. In the case of FLTKYFNKQPYPTRRVIEKLAASLWLWKSDIASHFSNKRKK [E16V], the abundance fitness was -0.168 ± 0.082. With FLTKYFNKQPYPTRRAIEKLAASLWLWKSDIASHFSNKRKK [E16A], the abundance fitness is -0.14 ± 0.06. As for FLTKYFNKQPYPTRRDIEKLAASLWLWKSDIASHFSNKRKK [E16D], the abundance fitness amounted to 0.016 ± 0.091.

Regarding FLTKYFNKQPYPTRREIEKLAASLWLWKSDITSHFSNKRKK [A32T], the abundance fitness was -0.086 ± 0.083. Turning to FLTKYFNKQPYPTRREIEKLAASLWLWKSDIASAFSNKRKK [H34A], the abundance fitness stood at 0.006 ± 0.047. Consider FLTKYFNKQPYPTRREIEKLAASLWLWKSDIASHFDNKRKK [S36D], for which the abundance fitness was -0.159 ± 0.077.

As to FLTKYFNKQPYPTRREIEKLAASLWLWKSDIASHFVNKRKK [S36V], the abundance fitness is -0.262 ± 0.072. On to FLTRYFNKQPYPTRREIEKLAASLWLWKSDIASHFSNKRKK [K4R], for which the abundance fitness is -0.549 ± 0.11. With FLTKYFNKQPYPMRREIEKLAASLWLWKSDIASHFSNKRKK [T13M], the abundance fitness was 0.28 ± 0.15. Consider FLTKYFNKQPYPLRREIEKLAASLWLWKSDIASHFSNKRKK [T13L], for which the abundance fitness was found to be 0.132 ± 0.077. Consider FLTKYFNKQPYPGRREIEKLAASLWLWKSDIASHFSNKRKK [T13G], for which the abundance fitness came to 0.16 ± 0.051.

On to FLTKYFNKQPYPYRREIEKLAASLWLWKSDIASHFSNKRKK [T13Y], for which the abundance fitness is 0.083 ± 0.18.

Take FLTKYFNKQPYPHRREIEKLAASLWLWKSDIASHFSNKRKK [T13H]: the abundance fitness was -0.135 ± 0.079. For the variant FLTKYFNKQPYRTRREIEKLAASLWLWKSDIASHFSNKRKK [P12R], the abundance fitness is -0.128 ± 0.061.

Take FLTKYFNKQPYLTRREIEKLAASLWLWKSDIASHFSNKRKK [P12L]: the abundance fitness was -0.22 ± 0.082. For FLTKYFNMQPYPTRREIEKLAASLWLWKSDIASHFSNKRKK [K8M] the value was -0.639 ± 0.33; for FLTKYFNTQPYPTRREIEKLAASLWLWKSDIASHFSNKRKK [K8T], -0.951 ± 0.094; for FLTKYFNCQPYPTRREIEKLAASLWLWKSDIASHFSNKRKK [K8C], -1.11 ± 0.24. Regarding FLTKYFNPQPYPTRREIEKLAASLWLWKSDIASHFSNKRKK [K8P], the abundance fitness was -1.11 ± 0.13. Regarding FLTKYFNWQPYPTRREIEKLAASLWLWKSDIASHFSNKRKK [K8W], the abundance fitness was -0.942 ± 0.18. Turning to FLTKYFNKQPYPTRREIEKLAASLWLWKSTIASHFSNKRKK [D30T], the abundance fitness was -0.182 ± 0.089. Turning to FLTKYFNKQPYPTVREIEKLAASLWLWKSDIASHFSNKRKK [R14V], the abundance fitness is -0.388 ± 0.13. Consider FLTKYFNKQPYPTAREIEKLAASLWLWKSDIASHFSNKRKK [R14A], for which the abundance fitness is -0.595 ± 0.22.

Source of the values: the Human Domainome abundance scans (Beltran et al. 2025).
